# Measured values taken from the nanobody polyreactivity screen of Harvey et al. (2022).
# Test: yeast display, Sf9 membrane polyspecificity reagent, FACS + sequencing; frameworks hold sequencing errors
# Outline: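 In a synthetic yeast display library (Saccharomyces cerevisiae BJ5465), nanobody expression was induced with galactose for 36–48 hours. FACS gates were set low and high (top ~1%) using anti-HA fluorescence for expression and streptavidin fluorescence for binding of the Sf9 membrane reagent. Each polyreactivity label is drawn from the gate of origin.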
row,Sequence,polyreactivity (PSR sort gate)
1,QVQLVESGGGLVQAGGSLRLSCAASGRTFYRYAMGWYRQAPGKERELVAAISYSGGSTYYADSVKGRFTISRDNAKNTVYLQMNSLKPEDTAVYYCNARPVKASYVGYNYWGQGTQVTVSS,high polyreactivity
2,QVQLVESGGGLVQAGGSLRLSCAASGRIFRRNTKGWYRQAPGKERELVAAITSAGGSTYADSVKGRFTISRDNAKNTVYFQMNSLKPEDTAVYYCATYVAYHRGYRTYDHWAQGTQVTVSS,low polyreactivity
3,QVQLVESGGGLVQAGGSLRLSCAASGRIFTYYTMAWYRQAPGKERELVAAISWSGGRTYYADSVKGRFTISRDNAKNTVYLQMNSLKPEDTAVYYCARRRAVRFYYWGQGTQVTVSS,high polyreactivity
4,QVQLVESGGGLVQAGGSLRLSCAASGSIFDYYAMGWYRQAPGKERELVAAISSSGDTTYYADSVKGRFTISRDTAKNTVYLQMNSLKPEDTAVYYCAARVRGYRHASNYYWGQGTQVTVSS,high polyreactivity
5,QVQLVESGGGLVQAGGSLRLSCAASGSTFQSYAMGWYRQAPGKERELVAAIDIGDSTYYADSVKGRYTISRDNAKNTVYLQMNSLKPEDTAVYYCAADDEDVLFDYWGQGTQVTVSS,low polyreactivity
6,QVQLVQTGGGLVQAGGSLRLSCAASGRIFLSYTRGWYSQAPGKERELVATIDSRVSTNYADSVKGRFTISRDNAKNTVYLQMNSLKPEDTAVYYCNADGFYSSHGYDYCGQGTQVTVSS,low polyreactivity
7,QVQLVESGGGLVQAGGSLRLSCAASGFIFDYNVMGWYRQAPGKKGSWVAAISWSGGSTYYADSVKGRFTISRDNAKNTVYLQMNSLKPEDTAVYYCAARGTSTYRGTGRYDYWGQGTQVTVSS,high polyreactivity
8,QVQLVESGGGLVQAGGSLRLSCAASGSIFGFNTMGWYRQAPGKERELVATINRSGGSTYYADSVKGRFTISRDNAKNTVYVQINSLKPEDTAVYYCAKDVWRHYMNLYDYWGQGTQVTVSS,low polyreactivity
9,QVQLVESGGGLVQAGGSLRLSCAASGFIFDGNAMGWYRQAPGKERELVAAIRSGGRPTYAPSVKGRFTSSRDNAKNTVDLQMNSLNPEDTAVYYCAARSIYPYYYRRDNRYYYWGQGTQVTVSS,high polyreactivity
10,QVQLVESGGGLVQAGGSLRLSCAASGITFYDYAMGWYRQAPGKERELVAAISFSGSRTYYADSVKGRFTISRDNAKNTVYLQMNCLKPEDTAVYYCATDTQDLHGYSWFDYWGQGTQVTVSS,high polyreactivity
11,QVQLVESGGRLVQAGGTLRLSCAASGRIFGDYAMGWYRQAPGKERELVAVISVGGRTTYADSVKGRFTISRDNAKNTVYLQMNSLKPEDTAVYYCATRLSTRDGGYRGQGTQVTVSS,low polyreactivity
12,QVQLVESGGGLVQAGGSLRLSCAASGSIFARYAMGWYRQAPGKERELVAAITGRGGSTYYADSVKGRFTISRDNAKNTVYLHMNSLKPEDTAVYYCAPKDVRRTRGGSGDYWGQGTQVTVSS,high polyreactivity
13,QVQLVESGGGLVQAGGILRLSCAASGRTIDHYAKGSYRKAPGKERELVAAISTTGGSTYYADSVKGRFTISRDNAKNTVYLQMNSLKPADTAVYYCAARGLRTGGYWGQGTQVTVSS,high polyreactivity
14,QVQLVESGGGLVQAGGSLRLSSAASGRIFSDYAMGWYRQAPGKERELVATITSGDSTNYGDSVKGRFTISRDNAKNTVYLQMNSLKTESTEVYYCNAERFPDYDYWGQGTQVTVSS,low polyreactivity
15,QVQLVESGGGLVQAGGSLRLSCAASGSTFFIYAMGWYRQAPGKERELVAAISWRDGSTYYADSVKGRFTISRDNAKNTVYLQMNSLKPEDTAVYYCAADYLLPWGIELDYWGQGTQVTVSS,high polyreactivity
16,QVQLVESGGGLVQAGGSLRLSCAASGFTFFVNTMGWYRQAPGKERELVAAISYDGGSTTYADSVKGRFTISRDNAKNTVYLQMNSLKPEDTAVYYCAAEYWAPFDYGTNSGYEYWGQGTQVTVSS,low polyreactivity
17,QVQLVESGGGLDQAGGSLRLTCAASGSTFRVYAKGSYSQAPRKERELGAAISRSGGSTTDYADSVKGRFTISRENAKNTVYLQINSLNPEDTAVYFCSDRDYKVQKIYDYWGLGTQVTVSS,low polyreactivity
18,QVQLVESGGGLVQAGGSLRLSCAASGRTFGKYAMGWYRQAPGKERELVASITFSSGSTYYADSVKGRFTISRDNAKNTVYLQMNSLKPEDTAVYYCAKRGWGIYDYWGQGTQVTVSS,low polyreactivity
19,QVQIVESGGGLVQAGGRLRLSFSASGIIFTGNAMGWYRQAPGKERELVAAITSGDTTNYADSVKGRFTISRDNAKNTVYLLMNSLKPEDTAVYYCAKELQVRQAGDYWGQGTQVTVSS,low polyreactivity
20,QVQLVESGGGLVQAGGSLRLSCAASGSTLVYYDMGWSRQAPGKERELVATITGTDSTYYADSVKGRFTISRDNAKNTVYLQMNSLKPEDTADCAADRAASRPDYDYWGQGTQVTVSS,low polyreactivity
21,QVQLVESGGGLVQAGGSLRLSCAASGRIFPTYTMGWYRQAPGKERELVAAIRRGGGRTYYADSVKGRFTISRDNAKNTVYLQMNSLKPEDTAVYYCAAPFYRQSLIEYDYWGQGTQVTVSS,high polyreactivity
22,QVQLVESGGGLVQEGGSLRLSCAASGSTFRYYAMGWYRQAPGKERELVASISSSGGNTYGDAVKGRFTISRDNAKNTVYLQMNSLKPEDTAVYYCNADWALLYSPPYTYRYGYWGQGTQVTVSS,low polyreactivity

row,Sequence,polyreactivity (PSR sort gate)
1,QVQLVESGGGLVQAGGSLRLSCAASGSIFDNNAMGWYRQAPGKERELVAAIRRTSTTYYADSVKGRFTISRDNAKNTVYLQMNSLKPEDTAVYYCAATYGSGYWYPRYYYWGQGTQVTVSS,high polyreactivity
2,QVQLVESGGGLVQAGGSLRLSCAASGSTSGSYGMGWYRQAPGKERELVAAIRISGDSTYYADSVKGRFTISRDNAKNTVYLQMNSLKPEDTAVYYCAAEAFFWYYGWYDYWGQGTQVTVSS,high polyreactivity
3,QVQLVESGGGLVQAGGSLRLSCAASGFTFAFYAMGWYRQAPGKERELVAAISWDGVTTYYADSVKGRFTISRDHAKNTVYLQMNSQKPEDTAVYYCAADYPDYAGSFWPSGMYYWGQGTQVTVSS,low polyreactivity
4,QVQLVESGGGLVQAGGSLRLSCAASGSSFGSNAMGWSRPAPGKERELVAAITGGDVSTYYADSVKGRFTISRDNAKNTVYLQMNSLKPEDTAVYYCNAEYARPAMDYWGQGTQVTVSS,low polyreactivity
5,QVQLVESGGGLVQAGGSLRLSCAASGRSFSGYAMGWYRQAPGKERDLVAAITSSGGRTYYADSVKGRFTISRDNAKNTVYVQMNSLKPEETAVYYSAAMRPGYRPQGLDYWGQGTQVTVSS,low polyreactivity
6,QVQLVESGGGLVQAGGSLRLSCAASGSTFKRYAMGWYRQAPGKERELVASISQRGGTTYYADSVKGRFTISRDNAKNTVYLQKNSLKPEDTAVYYCAKGFGWTRTIYDYWGQGTQVTVSS,high polyreactivity
7,QVQLVESGGGLVQAGGSLRLSCAASGSILDYYVMGCSRQSPGKERELVAAIRGGGSTYYADSVKGRFTISRDNAKNTVYLQMNSLKPEDTAVYYCAKDSQTARDFDYWGQGTQVTVSS,low polyreactivity
8,QVQLVESGGGFVHAGGSLRLSCAASGITSRFYAIGWYRQAPAKERELVAAITSGGGSTRYSDSVKGRFTISRDNAKNTVYLQMNSLKPEDTAVYYCNARVLYYVNGYGGCKRYGYWGQGTQVNVSS,high polyreactivity
9,QVQLVESGGCIVQAGGSLRLSCAASGNIFAYNGKVWYRQAPGKERELVAAIRGSGTRTYYAESVKGRFTISRDNAKNTVYLHMNSLKPEDTAVYYCSARYFGTARTNYGYWGQGTQVTVSS,high polyreactivity
10,QVQLVESGGGLVQAGGSLRLSCAASGRTFAKYAMGWYRQAPGKERELVAAISDSGGSTYYADSVKGRFTISRDNAKNTVYLQMNSLKPEDTAVYYCAADGRYTYYWGQGTQVTVSS,high polyreactivity
11,QVQLVESGGGLVQAGGSLRLSFAASGLTLYKNGMGWYRQAPGKETELVAVISRSGGRTYYADSVQGRFTISRDNAKNTVYLQMNSLKPEDTAVYYCAARQYGPRYTYYYWGQGTQVTVSS,high polyreactivity
12,PVQLVESGGGLVQAGGSLRLSCAASGRIFAQYAMGWYRQAPGNERELVADISSGVRTYAASVKGRFTISRDNAKNTVSFQMNSLKPEDTAVYYFNAYYIIFTRNDYWGQGTQVTVSS,low polyreactivity
13,QVQLVDSGGGLVQAGGSLRLSCAASGLNFVINAMGWYRQAPGKERELDATISSGVSTNYADSVKGRFTISRDNAKNTVYLQMNSLKPEDTAVYDCNKGQTVSRGYRLYERYDYWGQGTQVTVSS,low polyreactivity
14,QVQLVESGGGLVQAGGSLRLSCAASGRTFLWNAMGWSRPAPGKERELVAAITSGGRTTYADSVKGRFTISRDNAKNTVYLQMNSLKPEDTAVYYCAAVSANQDFDYWGQGTQVTVSS,high polyreactivity
15,HVQLQESGGGLVQAGGSLRLSCAASGNISNSRNMGWYRQAPGKERELVAAIDRGAITYYADSVKGRFTISRDNAKNTVYLQIYSLKPEDTAVYYCAAEYHDRWDHRYWGQGTQVTVSS,high polyreactivity
16,QVQLVESGGGLVQAGGSLRLSCAASGSIFFSNAMGGYRQAPGKERELVAAITSTGGSTYYADSVKGRFTISRDNAKNTGYLQMNSLKPEDTAVYYCAAASRRGYYYWGQGTQVTVSS,high polyreactivity
17,QVQLVESGGGLVQAGGSLRLSCAASGSIFPVYAMGWYRPAPGKERELVAAISLRAGNTYYADSVKGRFTISRDNAKNTVYLQMNSLKPEDTAVYDCAVELFRSTTIYDYWGQGTLVTVSS,high polyreactivity
18,QVQLVESGGGLVQAGGSLRLSCAASGRTFISNTMGWYRQAPGKERELVAALSGSGGSTYYADSVKGRFTISRDNAKNSVYLNMNRLKPEDTAVYYCNAPYVRQTRFGQSVRNNYWGQGTQVTVSS,high polyreactivity
19,QVQLVESGGGLVQAGGSLRLTCAASGSTFRWYAMGWYRQAPAKERELVAAIRSAGSTDYADSVKGRFTISRDNAKNTVYLQINSLKPEDTAVYYCAAYFRYRSSRYGYWGQGTQVTVSS,high polyreactivity
20,QVQLVESGRGLVQAGGSLRLSCAASGRTFWTYTMGCYRQAPWKEREFVAAITFGDGSTSYADYVKGRFTISRDNAKNTVFLQMNSLKQEDTAVYYCAKRWRRRFVDVWSLYDYWGHGTQVTVSS,low polyreactivity
21,QVQLVESGGGLVQAGGSLRLSCAASVSTFKPYAMGWYRQAPGKERELVSAISGSGGSTYYADSVKGRFTISRDNAKNTVYLQMNSLKPEDTAVYYCAARFYVSYYYFGYEYWGQGTQVTVSS,high polyreactivity
